Laboratory results as given in the RNAGym collection of RNA variant scans (doi:10.7554/elife.80360).

B1: Hairpin Ribozyme (parent)
chain: GUCCUCUUUCACGUGCGCGUGAAAGAGAGAAGUGAACCAGAGAAACACACGUUGUGGUAUAUUACCUGGUA

Variants of: B1
Assay: self-cleavage, relative activity (ratio to wild type); higher = more cleavage; co-transcriptional

Compared with G29A U58A, A28C G34U is higher in self-cleavage: 0.165 for the first, 1.23 for the second.

Compared with A28C G34A, A30C A64U is lower in self-cleavage: 0.753 for the first, 0.211 for the second.

First: A30C A64C
Second: A30C A64G
The self-cleavage of the first is higher: 0.127 for the first, 0.0788 for the second.

Compared with A28G A44C, A28U C66A is lower in self-cleavage: 0.202 for the first, 0.194 for the second.

First: G29A U62C
Second: G29A A71U
The self-cleavage of the first is lower: 0.0819 for the first, 0.126 for the second.

Going from G29A U53G to G29A U53C, the self-cleavage rises from 0.0705 to 0.234.

Going from A30C C38G to A30C C38A, the self-cleavage rises from 0.0718 to 0.183.

Going from A30C C38U to A28C G51U, the self-cleavage rises from 0.209 to 0.746.

Compared with G29U G40A, G29U G40C is lower in self-cleavage: 0.121 for the first, 0.0749 for the second.

Compared with G29U G40U, A30C G32C is lower in self-cleavage: 0.147 for the first, 0.12 for the second.

Going from A30C G32U to A28U G34C, the self-cleavage rises from 0.188 to 1.23.

Compared with A28U G34U, G29C U33G is lower in self-cleavage: 1.41 for the first, 0.13 for the second.

Compared with G29C U33C, G29C A64U is lower in self-cleavage: 0.224 for the first, 0.192 for the second.

Going from A28G C66A to A28U G69C, the self-cleavage falls from 0.231 to 0.219.

Compared with A30C G56A, A30C G56C is lower in self-cleavage: 0.194 for the first, 0.0453 for the second.

First: G29A A39U
Second: A30C A59U
The self-cleavage of the first is lower: 0.107 for the first, 0.169 for the second.

First: A30C A59G
Second: A30C A59C
The self-cleavage of the first is higher: 0.0647 for the first, 0.0289 for the second.

First: A28U A49G
Second: G29U G54C
The self-cleavage of the first is higher: 0.365 for the first, 0.12 for the second.

Going from G29U U63C to G29U G57A, the self-cleavage rises from 0.084 to 0.172.

Going from G29C A45C to G29A G40A, the self-cleavage falls from 0.207 to 0.133.

Compared with A30G A59C, A30G A59G is higher in self-cleavage: 0.0815 for the first, 0.311 for the second.

Compared with A30C A35G, A30C A35U is lower in self-cleavage: 0.217 for the first, 0.156 for the second.

First: A28U A43U
Second: A28U A43C
The self-cleavage of the first is lower: 0.132 for the first, 0.133 for the second.

First: G29U C38U
Second: A30C G42U
The self-cleavage of the first is lower: 0.1 for the first, 0.111 for the second.

Going from A30C G42C to A30C G42A, the self-cleavage falls from 0.094 to 0.0752.

Compared with A30C U63A, A30C U63G is lower in self-cleavage: 0.267 for the first, 0 for the second.

First: A28G A43C
Second: A28U U70G
The self-cleavage of the first is lower: 0.153 for the first, 0.338 for the second.

Going from A28U C38A to A28U C38G, the self-cleavage falls from 0.159 to 0.0619.

Going from G29U A35G to G29U A35C, the self-cleavage falls from 0.137 to 0.11.

Going from G29U G42U to A28U G57A, the self-cleavage rises from 0.107 to 0.152.

Going from G29A A43U to G29A A43G, the self-cleavage rises from 0.0816 to 0.205.

First: G29C G51C
Second: G29C G51A
The self-cleavage of the first is lower: 0.103 for the first, 0.125 for the second.

Compared with A28C C48A, G29C G42C is higher in self-cleavage: 0.122 for the first, 0.142 for the second.

First: A28G U58C
Second: A28G U58G
The self-cleavage of the first is lower: 0.791 for the first, 0.91 for the second.

Going from G29C A71U to G29A G69A, the self-cleavage falls from 0.21 to 0.117.

First: A28G G68U
Second: G29A G51A
The self-cleavage of the first is higher: 0.372 for the first, 0.138 for the second.

Going from G29A G51U to A30C G34C, the self-cleavage rises from 0.0861 to 0.79.

Going from G29C A44U to A30C U60C, the self-cleavage rises from 0.18 to 0.279.

First: G29U U58A
Second: G29U A71C
The self-cleavage of the first is higher: 0.154 for the first, 0.152 for the second.

Going from A30C U70A to A30C U70C, the self-cleavage falls from 0.159 to 0.127.

Going from A28U A44G to A28U A44C, the self-cleavage falls from 0.25 to 0.179.

First: G29A G32U
Second: A28C G42U
The self-cleavage of the first is lower: 0.0536 for the first, 0.0852 for the second.

First: G29C C46U
Second: G29C C46A
The self-cleavage of the first is higher: 0.171 for the first, 0.111 for the second.

Compared with A28C C65A, A28C C65U is higher in self-cleavage: 0.231 for the first, 0.249 for the second.

Compared with G29U U52C, A30G A71C is higher in self-cleavage: 0.178 for the first, 0.217 for the second.

Compared with A30G A71U, A28U U67A is lower in self-cleavage: 0.225 for the first, 0.0994 for the second.

Going from A28U U67C to A28U U53C, the self-cleavage rises from 0.12 to 0.769.

Going from A30G A35G to A30G A35C, the self-cleavage rises from 0.125 to 0.141.

First: A30G A35U
Second: A30G G57C
The self-cleavage of the first is higher: 0.0439 for the first, 0.0397 for the second.

Going from A28C C37G to A30C U67C, the self-cleavage falls from 0.199 to 0.0679.

Going from A30C U67G to A30C U67A, the self-cleavage falls from 0.109 to 0.0972.

Compared with A28G C50A, G29A A64C is lower in self-cleavage: 0.415 for the first, 0.115 for the second.

Going from G29A A64U to A28G G57C, the self-cleavage rises from 0.134 to 0.263.

Going from A28G U62C to G29U A44C, the self-cleavage falls from 0.302 to 0.251.

Compared with G29U A44U, A28G U70G is higher in self-cleavage: 0.125 for the first, 0.978 for the second.

Going from A30C U53A to A28C U58C, the self-cleavage rises from 0.0771 to 0.545.

First: G29C A41U
Second: A28G G69U
The self-cleavage of the first is lower: 0.103 for the first, 0.331 for the second.

Going from G29U G56U to A30C A61U, the self-cleavage falls from 0.143 to 0.097.

First: A30C A61G
Second: G29U C50U
The self-cleavage of the first is lower: 0.12 for the first, 0.163 for the second.

First: A28C G69U
Second: G29A A30G
The self-cleavage of the first is lower: 0.0989 for the first, 0.135 for the second.

First: G29C C48A
Second: A30C G51C
The self-cleavage of the first is higher: 0.136 for the first, 0.0477 for the second.

Going from A30C G51U to A30C G51A, the self-cleavage rises from 0.178 to 0.26.

Going from G29U U70G to A28G C48U, the self-cleavage falls from 0.315 to 0.276.

First: G29U G34U
Second: A30C C37G
The self-cleavage of the first is lower: 0.124 for the first, 0.277 for the second.

First: A30C C37U
Second: A30G G54U
The self-cleavage of the first is lower: 0.0704 for the first, 0.123 for the second.

Going from A28G G40C to A28U C50U, the self-cleavage falls from 0.166 to 0.1.

First: A28C U52C
Second: G29A G42C
The self-cleavage of the first is higher: 0.584 for the first, 0.0675 for the second.

Compared with G29A G42U, G29A A61U is lower in self-cleavage: 0.197 for the first, 0.096 for the second.

First: A30C A39C
Second: A30C A39U
The self-cleavage of the first is higher: 0.12 for the first, 0.0707 for the second.

First: A30G C38G
Second: A30G C38A
The self-cleavage of the first is higher: 0.149 for the first, 0.0519 for the second.

First: A28G G29A
Second: G29A A31U
The self-cleavage of the first is lower: 0.13 for the first, 0.178 for the second.

First: G29A A31G
Second: A28C G54C
The self-cleavage of the first is lower: 0.145 for the first, 0.187 for the second.

First: A28C G54A
Second: G29U C48A
The self-cleavage of the first is higher: 0.301 for the first, 0.0831 for the second.

Compared with G29U C48U, G29A U52C is higher in self-cleavage: 0.124 for the first, 0.156 for the second.

Compared with A28U A36G, G29U A43C is lower in self-cleavage: 0.656 for the first, 0.0797 for the second.

First: A28C C66A
Second: A28G C65U
The self-cleavage of the first is lower: 0.0844 for the first, 0.498 for the second.

First: A28G G54C
Second: A28G U67G
The self-cleavage of the first is higher: 0.432 for the first, 0.294 for the second.

First: G29U U53A
Second: G29C A36U
The self-cleavage of the first is higher: 0.103 for the first, 0.0836 for the second.

Compared with G29C A36C, G29U A47G is lower in self-cleavage: 0.179 for the first, 0.0517 for the second.

Compared with A28U G40U, G29A U33C is lower in self-cleavage: 0.13 for the first, 0.0835 for the second.

Compared with G29U C66A, G29U C66G is higher in self-cleavage: 0.205 for the first, 0.233 for the second.

Compared with G29A C65A, G29A C65G is higher in self-cleavage: 0.0759 for the first, 0.158 for the second.

Compared with G29A C50A, G29A G54A is lower in self-cleavage: 0.168 for the first, 0.141 for the second.

For A28G A30U, the self-cleavage was 0.0576.
